According to the supplement of paper PMC9112550, “Optimization of the antimicrobial peptide Bac7 by deep mutational scanning” (BMC Biology, 2022):

Tested on: Escherichia coli TOP10
Experiment: shrunken log2 fold change of peptide-encoding DNA abundance (4.5 h post-induction vs induction); higher = less antimicrobial activity (less host growth inhibition)
Settings: time post-induction: 4.5 h; library: site-saturation at positions 5, 18, 19, 20
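Note: peptides expressed intracellularly from a pBAD plasmid library in pooled LB shake-flask culture, induced with 0.3% L-arabinose, DNA abundance read by NGS, three biological replicates, DESeq2 with apeglm shrinkage.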

Row | Sequence | shrunken log2 fold change
1 | RRIRERPPRLPRPRPRPWDIPRP | -0.0155
2 | RRIRSRPPRLPRPRPRPVGHPRP | -0.376
3 | RRIRWRPPRLPRPRPRPQCRPRP | -0.00115
4 | RRIRWRPPRLPRPRPRPRRTPRP | 0.0983
5 | RRIRHRPPRLPRPRPRPSPCPRP | -0.225
6 | RRIRFRPPRLPRPRPRPEAMPRP | -0.000462
7 | RRIRIRPPRLPRPRPRPFWKPRP | 0.0187
8 | RRIRGRPPRLPRPRPRPLLMPRP | 1.22
9 | RRIRARPPRLPRPRPRPEQSPRP | 0.119
10 | RRIRHRPPRLPRPRPRPGVVPRP | -0.227
11 | RRIRSRPPRLPRPRPRPNKLPRP | -0.643
12 | RRIRVRPPRLPRPRPRPHITPRP | -0.643
13 | RRIRQRPPRLPRPRPRPYKPPRP | 0.0291
14 | RRIRMRPPRLPRPRPRPALNPRP | 0.759
15 | RRIRTRPPRLPRPRPRPRDRPRP | 0.19
16 | RRIRDRPPRLPRPRPRPRVWPRP | 0.352
17 | RRIRARPPRLPRPRPRPEVSPRP | 0.431
18 | RRIRYRPPRLPRPRPRPTRDPRP | -0.0311
19 | RRIRYRPPRLPRPRPRPRGSPRP | -0.285
20 | RRIRYRPPRLPRPRPRPRFDPRP | -0.51
21 | RRIRVRPPRLPRPRPRPTCSPRP | 0.19
22 | RRIRWRPPRLPRPRPRPTSDPRP | -0.0119
23 | RRIRDRPPRLPRPRPRPNTIPRP | -0.456
24 | RRIRRRPPRLPRPRPRPPRKPRP | 1.5
25 | RRIRARPPRLPRPRPRPHEFPRP | 0.293

Row | Sequence | shrunken log2 fold change
26 | RRIRGRPPRLPRPRPRPMVAPRP | 1.17
27 | RRIRERPPRLPRPRPRPITIPRP | -0.0388
28 | RRIRMRPPRLPRPRPRPRRKPRP | 0.416
29 | RRIRPRPPRLPRPRPRPHEFPRP | 0.253
30 | RRIRDRPPRLPRPRPRPCIQPRP | -0.0125
31 | RRIRMRPPRLPRPRPRPMAIPRP | 0.227
32 | RRIRRRPPRLPRPRPRPVEAPRP | 0.118
33 | RRIRGRPPRLPRPRPRPPVPPRP | 0.82
34 | RRIRCRPPRLPRPRPRPSRQPRP | 0.222
35 | RRIRPRPPRLPRPRPRPNHAPRP | -0.162
36 | RRIRARPPRLPRPRPRPCVFPRP | 0.39
37 | RRIRDRPPRLPRPRPRPQGFPRP | -0.00674
38 | RRIRNRPPRLPRPRPRPWKLPRP | -0.0134
39 | RRIRERPPRLPRPRPRPSEAPRP | 0.134
40 | RRIRTRPPRLPRPRPRPIKHPRP | -0.454
41 | RRIRPRPPRLPRPRPRPVLRPRP | 0.303
42 | RRIRHRPPRLPRPRPRPEIQPRP | -0.102
43 | RRIRHRPPRLPRPRPRPSGIPRP | -0.0153
44 | RRIRNRPPRLPRPRPRPTMKPRP | -0.368
45 | RRIRDRPPRLPRPRPRPTWCPRP | 0.18
46 | RRIRKRPPRLPRPRPRPYWSPRP | -0.153
47 | RRIRFRPPRLPRPRPRPDNYPRP | -0.12
48 | RRIRYRPPRLPRPRPRPNDHPRP | -1.23
49 | RRIRRRPPRLPRPRPRPWFCPRP | -0.101
50 | RRIRGRPPRLPRPRPRPATKPRP | 0.649

Row | Sequence | shrunken log2 fold change
51 | RRIRWRPPRLPRPRPRPAHEPRP | 0.1
52 | RRIRPRPPRLPRPRPRPHSDPRP | 0.0137
53 | RRIRDRPPRLPRPRPRPRVRPRP | 0.106
54 | RRIRDRPPRLPRPRPRPATAPRP | 0.722
55 | RRIRERPPRLPRPRPRPNIFPRP | -0.302
56 | RRIRIRPPRLPRPRPRPNSEPRP | -0.686
57 | RRIRGRPPRLPRPRPRPCCRPRP | 0.918
58 | RRIRPRPPRLPRPRPRPSNDPRP | -0.288
59 | RRIRNRPPRLPRPRPRPVEKPRP | 0.143
60 | RRIRGRPPRLPRPRPRPKPSPRP | 1.1
61 | RRIRPRPPRLPRPRPRPFYFPRP | -0.387
62 | RRIRARPPRLPRPRPRPGQEPRP | 0.0636
63 | RRIRTRPPRLPRPRPRPNCLPRP | -0.0709
64 | RRIRDRPPRLPRPRPRPWNAPRP | 0.0296
65 | RRIRVRPPRLPRPRPRPNVRPRP | -0.0431
66 | RRIRSRPPRLPRPRPRPFETPRP | -0.101
67 | RRIRERPPRLPRPRPRPQRWPRP | 0.117
68 | RRIRFRPPRLPRPRPRPENVPRP | -0.0124
69 | RRIRFRPPRLPRPRPRPNHKPRP | -0.405
70 | RRIRIRPPRLPRPRPRPKLAPRP | -0.117
71 | RRIRLRPPRLPRPRPRPEMTPRP | 0.276
72 | RRIRKRPPRLPRPRPRPHASPRP | 0.073
73 | RRIRSRPPRLPRPRPRPARQPRP | -0.0654
74 | RRIRSRPPRLPRPRPRPDNWPRP | -0.39
75 | RRIRCRPPRLPRPRPRPNLGPRP | -0.283

Row | Sequence | shrunken log2 fold change
76 | RRIRLRPPRLPRPRPRPETNPRP | 0.467
77 | RRIRDRPPRLPRPRPRPDKPPRP | 0.00451
78 | RRIRQRPPRLPRPRPRPLVGPRP | 0.38
79 | RRIRRRPPRLPRPRPRPVMHPRP | 0.0548
80 | RRIRKRPPRLPRPRPRPLPLPRP | 0.387
81 | RRIRNRPPRLPRPRPRPFSHPRP | -0.015
82 | RRIRNRPPRLPRPRPRPPEQPRP | 0.112
83 | RRIRNRPPRLPRPRPRPIADPRP | 0.0461
84 | RRIRWRPPRLPRPRPRPKAIPRP | -0.00613
85 | RRIRCRPPRLPRPRPRPAWWPRP | 0.902
86 | RRIRDRPPRLPRPRPRPFCVPRP | 0.483
87 | RRIRRRPPRLPRPRPRPKIRPRP | 0.0898
88 | RRIRKRPPRLPRPRPRPPQLPRP | 0.488
89 | RRIRGRPPRLPRPRPRPWFLPRP | -0.149
90 | RRIRLRPPRLPRPRPRPKISPRP | -0.0626
91 | RRIRARPPRLPRPRPRPMVMPRP | -0.00579
92 | RRIRPRPPRLPRPRPRPAMGPRP | 0.332
93 | RRIRCRPPRLPRPRPRPCSHPRP | -1.29
94 | RRIRIRPPRLPRPRPRPMVMPRP | -0.138
95 | RRIRQRPPRLPRPRPRPCRYPRP | -0.167
96 | RRIRSRPPRLPRPRPRPPVSPRP | 0.308
97 | RRIRHRPPRLPRPRPRPFRKPRP | 0.00884
98 | RRIRFRPPRLPRPRPRPMVKPRP | -0.219
99 | RRIRWRPPRLPRPRPRPIQRPRP | 0.0678
100 | RRIRLRPPRLPRPRPRPCRWPRP | 0.252

Row | Sequence | shrunken log2 fold change
101 | RRIRPRPPRLPRPRPRPESDPRP | 0.235
102 | RRIRIRPPRLPRPRPRPPLPPRP | 0.796
103 | RRIRNRPPRLPRPRPRPAIDPRP | -0.0478
104 | RRIRTRPPRLPRPRPRPEAFPRP | 0.0195
105 | RRIRLRPPRLPRPRPRPHKVPRP | -0.18
106 | RRIRKRPPRLPRPRPRPHTPPRP | 0.0819
107 | RRIRSRPPRLPRPRPRPFYIPRP | -0.608
108 | RRIRHRPPRLPRPRPRPRQPPRP | 0.474
109 | RRIRERPPRLPRPRPRPVDCPRP | 0.0769
110 | RRIRPRPPRLPRPRPRPRFRPRP | 0.217
111 | RRIRRRPPRLPRPRPRPVPWPRP | 0.573
112 | RRIRLRPPRLPRPRPRPIYCPRP | -0.527
113 | RRIRMRPPRLPRPRPRPLVNPRP | 0.0639
114 | RRIRARPPRLPRPRPRPETYPRP | 0.0388
115 | RRIRDRPPRLPRPRPRPRLYPRP | -0.0462
116 | RRIRTRPPRLPRPRPRPQCAPRP | 0.151
117 | RRIRWRPPRLPRPRPRPTDIPRP | -0.151
118 | RRIRGRPPRLPRPRPRPFNYPRP | -0.419
119 | RRIRYRPPRLPRPRPRPTYTPRP | -0.802
120 | RRIRFRPPRLPRPRPRPVRPPRP | 1.18
121 | RRIRSRPPRLPRPRPRPTWYPRP | -0.123
122 | RRIRDRPPRLPRPRPRPHVTPRP | -0.631
123 | RRIRIRPPRLPRPRPRPPWAPRP | 0.388
124 | RRIRERPPRLPRPRPRPNDFPRP | -0.0161
125 | RRIRPRPPRLPRPRPRPQNEPRP | -0.183
